T1: cyno TF ECD-His (cTF-his) (monkey (cyno))
T1 construct: also called bio-cTF-his; monkey TF-His protein
T1 chain: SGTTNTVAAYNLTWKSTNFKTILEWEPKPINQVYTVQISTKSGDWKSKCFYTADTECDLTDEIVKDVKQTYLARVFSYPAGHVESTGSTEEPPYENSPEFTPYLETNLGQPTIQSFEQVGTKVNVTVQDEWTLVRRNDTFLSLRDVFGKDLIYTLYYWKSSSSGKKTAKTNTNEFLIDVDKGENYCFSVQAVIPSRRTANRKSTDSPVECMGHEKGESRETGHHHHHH


How the values were obtained:
[1] = molecular target: T2, human tissue factor (TF) on MDA-MB-231, NCI-H358 and HCT116 cells (human, UniProt P13726 33-295); assay: flow cytometry on MDA-MB-231 cells
T2 construct: whole, on cells; also called TF antigen; CD142

[2] = molecular target: T3, human TF ECD-His (hTF-his) (human, UniProt P13726 33-251); assay: SPR Biacore T200, antibody on Protein A chip, TF-His as analyte, 1:1 model
T3 construct: also called bio-hTF-his; human TF-His protein

[3] = molecular target: T1, cyno TF ECD-His (cTF-his); assay: as above
[4] = molecular target: T2, human tissue factor (TF) on MDA-MB-231, …; assay: flow cytometry on H358 cells

Row | EC50 [1] | Kd [2] | koff [2] | kon [2] | Kd [3] | koff [3] | kon [3] | EC50 [4] | Binder
1 | 1.84 nM | 23.2 nM | 0.00949 s⁻¹ | 409000 M⁻¹ s⁻¹ | 23.5 nM | 0.00767 s⁻¹ | 327000 M⁻¹ s⁻¹ |  | chimeric antibody CH310 (antibody, human IgG1, kappa, V domains shown, Murine 310# variable regions + human constant regions) VH: EVQLQQSGPELVKPGASLKISCKASGYSFTGYYMNWVKQSPEKSLEWIGEINPSTGGSTYNQKFKAKATLTVDQSSNTAYMQLKSLTSEDSAVYYCARRELGGPFGYWGQGTPVTVSA VL: SIVMTQTPKFLLVSSGDRVTITCKASQSVSNGIAWYQQKPGQSPKLLIYFASNRYTGVPDRFTGSGYGTDFTFTISTVQAEDLAVYFCQQDYSSPWTFGGGTKLEIKR
2 | 16.5 nM | 36.7 nM | 0.000969 s⁻¹ | 26400 M⁻¹ s⁻¹ | 16 nM | 0.000473 s⁻¹ | 29500 M⁻¹ s⁻¹ | 55.9 nM | chimeric antibody CH67 (antibody, human IgG1, kappa, V domains shown, Murine 67# variable regions + human constant regions) VH: QVQLKQSGPGLVQPSQSLSITCIVSGFSLTNYGVNWVRQSPRKGLEWLGVIWSRGNTDYNAAFISRLIISKDNSKSQVFLKMNRLQADDTAIYYCARKDAVVATDALDYWGQGTSVTVSS VL: DIVMTQSHKFMSTSLGDRVSITCKASQDVSTAVAWYQQKPGQSPKLLIYSTSYRYTGVPDRFTGSGSGTDFTFTISSVQAEDLAVYYCQQHYSTPYTFGGGTKLEIKR
3 | 1.09 nM | 0.545 nM | 7.45e-05 s⁻¹ | 137000 M⁻¹ s⁻¹ | 0.642 nM | 9.83e-05 s⁻¹ | 153000 M⁻¹ s⁻¹ | 0.45 nM | hu10H10-29 (antibody, V domains shown, H11+L1; Full-length IgG) VH: EVQLVQSGSELKKPGASVKVSCKASGYTFITYWIEWVKQRPGQGLEWMGDILPYSGSTNYNENFKGRATFSADTSVSTAYLQISSLKAEDTAVYYCARSGYYGNSGFAYWGQGTLVTVSS VL: DIQMTQSPSSLSASVGDRVTITCKSSQSLLSSGNQKNYLTWYQQKPGKAPKLLIYWASTRESGVPSRFSGSGSGTDFTLTISSLQPEDFATYYCQNDYTYPLTFGQGTKLEIK
4 | 1.09 nM |  |  |  |  |  |  | 0.96 nM | hu10H10-33 (antibody, V domains shown, H7+L3; Full-length IgG) VH: EVQLVQSGSELKKPGASVKVSCKASGYTFITYWIEWVKQRPGQGLEWMGDILPGSGSTNYNENFKGRATFSADTSVSTAYLQISSLKAEDTAVYYCARSGYYGNSGFAYWGQGTLVTVSS VL: DIQMTQSPSSLSASVGDRVTITCKSSQSLLSSGNQKNYLTWYQQKPGKAPKLLIYWASTREEGVPSRFSGSGSGTDFTLTISSLQPEDFATYYCQNDYTYPLTFGQGTKLEIK
5 | 1.14 nM |  |  |  |  |  |  | 0.81 nM | hu10H10-38 (antibody, V domains shown, H12+L3; Full-length IgG) VH: EVQLVQSGSELKKPGASVKVSCKASGYTFITYWIEWVKQRPGQGLEWMGDILPGHGSTNYNENFKGRATFSADTSVSTAYLQISSLKAEDTAVYYCARSGYYGNSGFAYWGQGTLVTVSS VL: DIQMTQSPSSLSASVGDRVTITCKSSQSLLSSGNQKNYLTWYQQKPGKAPKLLIYWASTREEGVPSRFSGSGSGTDFTLTISSLQPEDFATYYCQNDYTYPLTFGQGTKLEIK
6 | 1.07 nM |  |  |  |  |  |  | 0.55 nM | hu10H10-40 (antibody, V domains shown, H14+L3 (printed bu10H10-40); Full-length IgG; also called bu10H10-40) VH: EVQLVQSGSELKKPGASVKVSCKASGYTFITYWIEWVRQRPGQGLEWMGDILPGSGWTNYNENFKGRAVFSADTSVSTAYLQISSLKAEDTAVYYCARSGYYGNSGFAYWGQGTLVTVSS VL: DIQMTQSPSSLSASVGDRVTITCKSSQSLLSSGNQKNYLTWYQQKPGKAPKLLIYWASTREEGVPSRFSGSGSGTDFTLTISSLQPEDFATYYCQNDYTYPLTFGQGTKLEIK
7 | 1.09 nM |  |  |  |  |  |  | 0.79 nM | hu10H10-35 (antibody, V domains shown, H9+L3; Full-length IgG) VH: EVQLVQSGSELKKPGASVKVSCKASGYTFRTYWIEWVKQRPGQGLEWMGDILPGSGSTNYNENFKGRATFSADTSVSTAYLQISSLKAEDTAVYYCARSGYYGNSGFAYWGQGTLVTVSS VL: DIQMTQSPSSLSASVGDRVTITCKSSQSLLSSGNQKNYLTWYQQKPGKAPKLLIYWASTREEGVPSRFSGSGSGTDFTLTISSLQPEDFATYYCQNDYTYPLTFGQGTKLEIK
8 | 1.07 nM |  |  |  |  |  |  | 0.35 nM | hu10H10-37 (antibody, V domains shown, H11+L3; Full-length IgG) VH: EVQLVQSGSELKKPGASVKVSCKASGYTFITYWIEWVKQRPGQGLEWMGDILPYSGSTNYNENFKGRATFSADTSVSTAYLQISSLKAEDTAVYYCARSGYYGNSGFAYWGQGTLVTVSS VL: DIQMTQSPSSLSASVGDRVTITCKSSQSLLSSGNQKNYLTWYQQKPGKAPKLLIYWASTREEGVPSRFSGSGSGTDFTLTISSLQPEDFATYYCQNDYTYPLTFGQGTKLEIK
9 | 1.12 nM |  |  |  |  |  |  | 1.02 nM | hu10H10-57 (antibody, V domains shown, H2+L5; Full-length IgG) VH: EVQLVQSGSELKKPGASVKVSCKASGYTFITYWIEWVRQRPGQGLEWMGDILPGSGSTNYNENFKGRAVFSADTSVSTAYLQISSLKAEDTAVYYCARSGYYGNSGFAYWGQGTLVTVSS VL: DIQMTQSPSSLSASVGDRVTITCKSSQSLLDSGNQKNYLTWYQQKPGKAPKLLIYWASTREEGVPSRFSGSGSGTDFTLTISSLQPEDFATYYCQNDYTYPLTFGQGTKLEIK
10 | 2.14 nM |  |  |  |  |  |  | 0.96 nM | hu10H10-36 (antibody, V domains shown, H10+L3; Full-length IgG) VH: EVQLVQSGSELKKPGASVKVSCKASGYTFIEYWIEWVKQRPGQGLEWMGDILPGSGSTNYNENFKGRATFSADTSVSTAYLQISSLKAEDTAVYYCARSGYYGNSGFAYWGQGTLVTVSS VL: DIQMTQSPSSLSASVGDRVTITCKSSQSLLSSGNQKNYLTWYQQKPGKAPKLLIYWASTREEGVPSRFSGSGSGTDFTLTISSLQPEDFATYYCQNDYTYPLTFGQGTKLEIK
11 | 1.12 nM |  |  |  |  |  |  | 0.99 nM | hu10H10-34 (antibody, V domains shown, H8+L3; Full-length IgG) VH: EVQLVQSGSELKKPGASVKVSCKASGRTFITYWIEWVRQRPGQGLEWMGDILPGSGSTNYNENFKGRATFSADTSVSTAYLQISSLKAEDTAVYYCARSGYYGNSGFAYWGQGTLVTVSS VL: DIQMTQSPSSLSASVGDRVTITCKSSQSLLSSGNQKNYLTWYQQKPGKAPKLLIYWASTREEGVPSRFSGSGSGTDFTLTISSLQPEDFATYYCQNDYTYPLTFGQGTKLEIK
12 | 1.09 nM | 0.47 nM | 7.34e-05 s⁻¹ | 156000 M⁻¹ s⁻¹ | 0.375 nM | 6.77e-05 s⁻¹ | 181000 M⁻¹ s⁻¹ | 0.41 nM | hu10H10-53 (antibody, V domains shown, H11+L6; Full-length IgG) VH: EVQLVQSGSELKKPGASVKVSCKASGYTFITYWIEWVKQRPGQGLEWMGDILPYSGSTNYNENFKGRATFSADTSVSTAYLQISSLKAEDTAVYYCARSGYYGNSGFAYWGQGTLVTVSS VL: DIQMTQSPSSLSASVGDRVTITCKSSQSLLSSSNQKNYLTWYQQKPGKAPKLLIYWASTREEGVPSRFSGSGSGTDFTLTISSLQPEDFATYYCQNDYTYPLTFGQGTKLEIK
13 | 1.1 nM |  |  |  |  |  |  | 0.42 nM | hu10H10-39 (antibody, V domains shown, H13+L3 (printed bu10H10-39); Full-length IgG; also called bu10H10-39) VH: EVQLVQSGSELKKPGASVKVSCKASGYTFITYWIEWVKQRPGQGLEWMGDILPGSGWTNYNENFKGRATFSADTSVSTAYLQISSLKAEDTAVYYCARSGYYGNSGFAYWGQGTLVTVSS VL: DIQMTQSPSSLSASVGDRVTITCKSSQSLLSSGNQKNYLTWYQQKPGKAPKLLIYWASTREEGVPSRFSGSGSGTDFTLTISSLQPEDFATYYCQNDYTYPLTFGQGTKLEIK
14 | 1.43 nM |  |  |  |  |  |  | 1.09 nM | hu10H10-58 (antibody, V domains shown, H2+L6; Full-length IgG) VH: EVQLVQSGSELKKPGASVKVSCKASGYTFITYWIEWVRQRPGQGLEWMGDILPGSGSTNYNENFKGRAVFSADTSVSTAYLQISSLKAEDTAVYYCARSGYYGNSGFAYWGQGTLVTVSS VL: DIQMTQSPSSLSASVGDRVTITCKSSQSLLSSSNQKNYLTWYQQKPGKAPKLLIYWASTREEGVPSRFSGSGSGTDFTLTISSLQPEDFATYYCQNDYTYPLTFGQGTKLEIK
15 | 26.3 nM | 16.5 nM | 0.000675 s⁻¹ | 40900 M⁻¹ s⁻¹ | 8.95 nM | 0.000243 s⁻¹ | 27100 M⁻¹ s⁻¹ |  | hu67-11 (antibody, human IgG1, kappa, V domains shown) VH: EVQLQESGPGLVKPSQTLSLTCTVSGFSLTNYGVNWIRQPPGKGLEWIGVIWSRGNTDYNAAFISRVTISKDTSKNQVSLKLSSVTAADTAVYYCARKDAVVATDALDYWGQGTTVTVSS VL: DIQMTQSPSSLSASVGDRVTITCKASQDVSTAVAWYQQKPGKAPKLLIYSTSYRYTGVPSRFSGSGSGTDFTFTISSLQPEDIATYYCQQHYSTPYTFGGGTKVEIKR
16 | 18 nM | 18.9 nM | 0.000766 s⁻¹ | 40500 M⁻¹ s⁻¹ | 15.5 nM | 0.000523 s⁻¹ | 33700 M⁻¹ s⁻¹ | 90.5 nM | hu67-4 (antibody, human IgG1, kappa, V domains shown) VH: EVQLQESGPGLVKPSQTLSLTCTVSGFSLTNYGVNWIRQPPRKGLEWIGVIWSRGNTDYNAAFISRVTISKDNSKSQVSLKLSSVTAADTAVYYCARKDAVVATDALDYWGQGTTVTVSS VL: DIVMTQSPKSLAVSLGERATINCKASQDVSTAVAWYQQKPGQPPKLLIYSTSYRYTGVPDRFSGSGSGTDFTLTISSLQAEDVAVYYCQQHYSTPYTFGGGTKVEIKR
17 | 7.05 nM |  |  |  |  |  |  |  | hu67Y118 (antibody, human IgG1, kappa, V domains shown) VH: EVQLQESGPGLVKPSQTLSLTCTVSGFSLTNYGVNWIRQSPGKGLEWIGVIWSRGNTDYNAAFKSRVTISKDTSKNQVSLKLSSVTAADTAVYYCARKDAIVATDALDYWGQGTTVTVSS VL: DIQMTQSPSSLSASVGDRVTITCKASQDVQTAVAWYQQKPGKAPKLLIYSTHYRYTGVPSRFSGSGSGTDFTFTISSLQPEDIATYYCLQLIGVPHTFGGGTKVEIKR

— patent EP4703388A1 (Jiangsu Hengrui Pharmaceuticals Co., Ltd., dated 2024)
